# B1: anti-human FVII aptamer (SEQ no 1) (ssRNA)
# RNA: GGGAGAGAGGAAGAGGGAUGGGAGCCUAUGUAACAGAUGCAGAUCCCUAGUCGUCCCAACACCAUAAC
# modifications: 2'-OMe at bases shown in bold in the patent (positions not recoverable from text); 3'-biotin
# What was measured:
# [1] = biological target: rabbit plasma-derived factor VII (Oryctolagus cuniculus, UniProt P98139 P98139:40-444); assay: SPR; complete absence of binding at 50-400 nM; same buffer (CaCl2 2 mM); conditions: tags: American Diagnostica; label: 3'-biotin
# Description: (§1) This aptamer is modified at the 3′-end thereof by grafting a biotin. Nucleotide bases in bold (SEQ no 1) are 2′O-methylated, which makes it possible to stabilize the aptamer by making it more resistant to nucleases. The aptamer was then immobilized onto an avidin-containing SA chip (Biacore GE). The aptamer was thus immobilized in an oriented manner through the 3′-end thereof with an immobilization rate of 2700 RU (where 1 RU does approximately correspond to 1 pg of immobilized product per mm²).
# Rabbit plasma-derived factor VII (American Diagnostica) was diluted in the same buffer as in Example 1 at concentration levels of 50, 100 200, 400 nM, thereafter was injected under the same conditions as in Example 1 into the same chip containing the immobilized aptamer.
# [2] = biological target: human plasma-derived factor VII (HP FVII) (Homo sapiens, UniProt P08709 P08709:61-466); assay: SPR; Hepes 20 mM pH 8, NaCl 50 mM, CaCl2 2 mM, BSA 0.01%; aptamer immobilized via 3'-biotin on SA chip; allosteric binding model; FVII 50-400 nM; conditions: tags: plasma-derived, purity 99%; label: 3'-biotin
# Description: as §1
# Some purified, human plasma-derived factor VII (HP FVII, purity: 99%) was diluted in run buffer (Hepes 20 mM pH=8, NaCl 50 mM, CaCl₂ 2 mM and BSA 0.01%) so as to obtain four samples with human plasma-derived factor VII concentration levels of 50, 100, 200 and 400 nM. Each sample was injected sequentially into the same immobilized aptamer-containing chip through a biotin-streptavidin interaction. Controls are obtained by injecting blanks which only contained the run buffer. All injections are performed at a flow rate of 20 μl/min for 120 sec, after injection of the run buffer into the chip at the same flow rate for 240 sec. […] A binding to the immobilized aptamer generates a signal increase expressed in resonance unit (RU) recorded by the device (FIG. 1). […] The modelling of the recorded interactions was made by means of the Biaevaluation software (GE).
# human plasma-derived factor VII (HP FVII), sequence (P08709 61-466, one chain of several): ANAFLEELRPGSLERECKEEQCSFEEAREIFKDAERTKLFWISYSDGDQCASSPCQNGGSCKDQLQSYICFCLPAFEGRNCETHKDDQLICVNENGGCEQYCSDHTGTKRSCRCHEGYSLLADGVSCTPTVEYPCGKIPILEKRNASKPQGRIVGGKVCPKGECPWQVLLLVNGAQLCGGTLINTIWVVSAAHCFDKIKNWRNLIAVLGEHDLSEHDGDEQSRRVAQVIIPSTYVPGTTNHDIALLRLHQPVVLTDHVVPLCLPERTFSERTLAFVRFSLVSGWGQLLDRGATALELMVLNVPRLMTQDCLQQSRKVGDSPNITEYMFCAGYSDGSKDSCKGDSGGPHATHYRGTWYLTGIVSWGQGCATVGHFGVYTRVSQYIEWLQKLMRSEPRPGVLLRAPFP
# rabbit plasma-derived factor VII, sequence (P98139 40-444, one chain of several): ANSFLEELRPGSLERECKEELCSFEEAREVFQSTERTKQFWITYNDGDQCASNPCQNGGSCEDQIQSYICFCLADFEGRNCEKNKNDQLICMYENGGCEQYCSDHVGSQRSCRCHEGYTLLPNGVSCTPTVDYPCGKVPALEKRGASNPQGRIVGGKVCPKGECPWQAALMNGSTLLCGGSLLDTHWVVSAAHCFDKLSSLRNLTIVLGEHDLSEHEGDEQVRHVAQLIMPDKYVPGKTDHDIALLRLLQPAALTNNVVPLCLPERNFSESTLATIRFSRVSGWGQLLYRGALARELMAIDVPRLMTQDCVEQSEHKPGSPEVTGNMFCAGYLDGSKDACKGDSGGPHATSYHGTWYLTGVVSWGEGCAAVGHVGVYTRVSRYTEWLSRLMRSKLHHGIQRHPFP
binder,measurement,setting,value
B1,binding result,[1],no binding
same,Kd,[2],1400 nM
